We go through 7 molecules from US5374506A, “Amino acid sequence for a functional human interleukin-8 receptor” (The United States of America as represented by the …, priority 1991, dated 1994).

For orientation: Kd means the free concentration of one partner at which half of the binding sites on the other are occupied at equilibrium, for simple one-to-one binding. Usually EC50 stands for the concentration at which the effect is half-maximal.

Assay [1] deals with T1, human IL-8 receptor (Homo sapiens, UniProt P25025).
T1 construct: expressed in transfected cells; host or cells: Xenopus oocytes injected with p2 cRNA
T1 sequence (P25025 6-360): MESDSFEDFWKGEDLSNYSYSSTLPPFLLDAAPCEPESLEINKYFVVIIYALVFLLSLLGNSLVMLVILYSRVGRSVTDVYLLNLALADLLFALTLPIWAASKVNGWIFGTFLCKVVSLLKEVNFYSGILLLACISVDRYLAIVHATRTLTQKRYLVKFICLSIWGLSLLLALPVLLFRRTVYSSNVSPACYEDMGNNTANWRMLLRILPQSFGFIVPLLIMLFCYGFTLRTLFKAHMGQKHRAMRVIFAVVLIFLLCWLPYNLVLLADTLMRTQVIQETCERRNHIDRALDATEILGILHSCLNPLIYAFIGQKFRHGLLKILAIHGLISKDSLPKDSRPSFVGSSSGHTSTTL
In words: calcium efflux assay in Xenopus oocytes injected with p2 cRNA. Format: cell-based. The note with it: for rank order of potency for activating calcium flux: IL-8 receptor expressed by Xenopus oocytes, FIG. 2(C); for calcium mobilization / activation of the IL-8 receptor (result in words): FIG. 2C. The procedure:
(§1) The materials and methods used for the calcium efflux assay were as described in P. M. Murphy, E. K. Gallin, H. L. Tiffany, J. Immunol. […] Oocytes were microinjected with RNA samples in a total volume of 50 nl per oocyte 3 days after harvesting and were then incubated at 20° to 23° C. for 2 to 4 days. Oocytes were then incubated with ^45 Ca^2+ [50 μCi/ml (ICN Biomedicals, Costa Mesa, Calif.)] for 3 hours. After ten washes with medium, individual oocytes were stimulated with ligand in wells of a 96-well tissue culture plate containing 100 μl of medium. Three 100 μl samples of the incubation medium were collected and analyzed by liquid scintillation counting: a) the final 100 μl wash (20 min) before application of ligand; b) fluid containing the stimulus, removed after a 20 min incubation with the oocyte; and c) the oocyte solubilized in SDS (1%) in medium 20 min after stimulation. Data are presented as the mean±standard error of the mean (SEM) of the percent of loaded ^45 Ca^2+ that was released by individual oocytes in response to the stimulus, or [(b-a).div.(b+c)]×100. FMLP and recombinant human C5a was from Sigma, St. Louis, Mo. Recombinant human IL-8 was from Genzyme, Boston, Mass. Recombinant human NAP-2 was from Bachem, Philadelphia, Pa.
A general note: A change in cytosolic calcium serves as a functional read-out for many receptors and channels.

Another assay deals with receptor encoded by p2. Put plainly: binding of 125I-labeled IL-8 and gro to COS cells transiently transfected with pCDNAI-p2. Further details: species or system human. The note with it: receptor encoded by p2 expressed in COS cells. The method, then: To further support the data obtained from the oocyte studies, the p2 cDNA was also cloned into the vector pCDNAI. When COS cells are transiently transfected with the pCDNAI-p2 construct, specific binding sites were detected with ^125 I-labeled IL-8 and gro protein. In contrast to the ligand binding affinity in the oocyte environment, the affinity for the ligand when the receptor encoded by p2 was expressed in the COS cell was higher. Specifically, the kd for IL-8 was 2 nM and the kd for gro was 1.3 nM.

The target in assay [2] is human interleukin-8 receptor encoded by cDNA clone p2 (human).
Assay [3] concerns oocytes injected with 50 ng of HL60 neutrophil RNA. In words: calcium efflux assay in oocytes injected with HL60 neutrophil RNA. It counts as cell-based, Xenopus. The note with it: oocytes injected with 50 ng HL60 neutrophil RNA. The procedure:
as §1

Another assay deals with recombinant human IL-8 (human, UniProt P10145, 125I label in the binding experiments). Put plainly: binding of 125I-labeled IL-8 to COS cells transiently transfected with pCDNAI-p2.
In assay [4] the target is gro (melanoma growth-stimulatory activity) (Homo sapiens (Human), UniProt P09341, 125I label in the COS cell binding experiment). Put plainly: binding of 125I-labeled gro to COS cells transiently transfected with pCDNAI-p2.
Another assay concerns the target recombinant human C5a (human, UniProt P01031). Put plainly: displacement of [125I]-IL-8 from Xenopus oocytes injected with p2 cRNA. On the technique in general: In a radioligand displacement assay an active substance lowers the binding of a labelled ligand.
The target in assay [5] is T1, human IL-8 receptor. In words: binding of [125I]-IL-8 to oocytes injected with p2 cRNA. The note with it: 1 μM competitor. The method, then:
Total ( ) and non-specific binding (.largecircle.) was determined by incubating oocytes injected with p2 cRNA with the indicated concentration of radioligand in the absence or presence of unlabeled IL-8 (1 μM), respectively. The data shown are the mean±SEM of triplicate determinations per point and are representative of two separate experiments. Nonspecific binding was subtracted from total binding to determine specific binding (.quadrature.). […] Specific binding of [^125 I]-IL-8 by oocytes injected with water was undetectable.
IL-8 was iodinated to a specific activity of 260 Ci/mmole as described in H. L. Malech, J. P. Gardner, D. F. Heiman, S. A. Rosenzweig, J. Biol. Chem. 260, 2509 (1985). The radioligand was qualified by binding to human neutrophils. Single oocytes were incubated with [^125 I]-IL-8 for 30 min on ice in 10 μl binding buffer (Hanks balanced salt solution with 25 mM HEPES, 1% bovine serum albumin, pH 7.4). Unbound ligand was removed by pelleting the oocyte through 300 μl F50 silicone fluid (General Electric, Waterford, N.Y.). The tube was quick-frozen and gamma emissions from the amputated tips were counted.

Where [6] appears, read: Xenopus oocytes injected with p2 cRNA.

For “gro: member of the macrophage inflammatory protein-2 (MIP-2) family of cytokines, structurally related to IL-8”, the “rank order of potency for activating calcium flux” value with human IL-8 receptor [1] was “IL-8>gro>NAP-2”. The Kd with receptor encoded by p2 is 1.3 nM.
In the case of “IL-8: inflammatory cytokine, potent chemoattractant for neutrophils; recombinant human IL-8 from Genzyme”, in the assay with human IL-8 receptor [1], the “rank order of potency for activating calcium flux” value is reported as “IL-8>gro>NAP-2”. The EC50 with human IL-8 receptor [1] (Xenopus oocytes injected with p2 cRNA, FIG. 2A, read-out: EC50 of intracellular calcium mobilization) came to 20 nM. Moreover, the “EC50 in oocytes relative to value reported for human neutrophils” value with human IL-8 receptor [1] (oocyte EC50 higher than that reported for human neutrophils with recombinant human IL-8) is “approximately 20 fold”. In the assay with receptor encoded by p2, this molecule came in with a Kd of 2 nM.
For the molecule “recombinant human IL-8 (from UniProt P10145) (ligand)”, the calcium efflux (mobilization of intracellular calcium), EC50 in assay [2] was determined as 20 nM.
`CSCC[C@H](NC=O)C(=O)N[C@@H](CC(C)C)C(=O)N[C@@H](Cc1ccccc1)C(=O)O` [FMLP, N-formyl methionyl-leucylphenylalanine, reference compound]: at human IL-8 receptor [1] (setting [6]), the “calcium mobilization / activation of the IL-8 receptor (result in words)” value is given as “did not respond”. Also, the “calcium efflux response (percent of loaded 45Ca2+ released)” value in assay [3] (1 μM ligand) came out at 51±3%.

B1: human interleukin-8 receptor encoded by cDNA clone p2 (receptor)
chain: MESDSFEDFWKGEDLSNYSYSSTLPPFLLDAAPCEPESLEINKYFVVIIYALVFLLSLLGNSLVMLVILYSRVGRSVTDVYLLNLALADLLFALTLPIWAASKVNGWIFGTFLCKVVSLLKEVNFYSGILLLACISVDRYLAIVHATRTLTQKRYLVKFICLSIWGLSLLLALPVLLFRRTVYSSNVSPACYEDMGNNTANWRMLLRILPQSFGFIVPLLIMLFCYGFTLRTLFKAHMGQKHRAMRVIFAVVLIFLLCWLPYNLVLLADTLMRTQVIQETCERRNHIDRALDATEILGILHSCLNPLIYAFIGQKFRHGLLKILAIHGLISKDSLPKDSRPSFVGSSSGHTSTTL
As to B1, the Kd in the assay with recombinant human IL-8 was 2 nM; in assay [4], 1.3 nM. Besides, the binding result in the assay with recombinant human C5a is on record as “no binding (tested: 1 µM)”.

B2: NAP-2: member of the MIP-2 family of cytokines; recombinant human NAP-2 from Bachem (protein)
chain: AELRCMCIKTTSGIHPKNIQSLEVIGKGTHCNQVEVIATLKDGRKICLDPDAPRIKKIVQKKLAGDESAD
For the molecule B2, the “rank order of potency for activating calcium flux” value with human IL-8 receptor [1] was “IL-8>gro>NAP-2”.

B3: C5a: structurally unrelated chemoattractant, 74 amino acids; recombinant human C5a from Sigma (protein)
chain: TLQKKIEEIAAKYKHSVVKKCCYDGACVNNDETCEQRAARISLGPRCIKAFTECCVVASQLRANISHKDMQLGR
Turning to B3, the “calcium mobilization / activation of the IL-8 receptor (result in words)” value in the assay with human IL-8 receptor [1] (setting [6]) was “did not activate”. In addition, the “calcium efflux response (percent of loaded 45Ca2+ released)” value in assay [3] (500 nM ligand) was determined as 16±5%. Further, in the assay with human IL-8 receptor [5], the “displacement of [125I]-IL-8” value is “did not displace”.
